B1: Tumor protein p73, residues 487 to 549; numbered along this chain, O15350 (parent)
chain: YHADPSLVSFLTGLGCPNCIEYFTSQGLQSIYHLQNLTIEDLGALKIPEQYRMTIWRGLQDLK

± gives the uncertainty stated by the source.

This is an account of results in the Human Domainome abundance scans (Beltran et al. 2025).

The variants in this data set derive from B1. Description: abundance fitness (aPCA) (normalised: wild type 0, dead -1); higher = more abundant; growth selection in yeast, the domain comes from the species named. The following applies: Homo sapiens.
With YHADPSLVSFLTGLGCPNCIEYFTSQGGQSIYHLQNLTIEDLGALKIPEQYRMTIWRGLQDLK, the abundance fitness was -0.289 ± 0.032.

On to YHADPSLVSFLTGLGCPNCIEYFTSQGIQSIYHLQNLTIEDLGALKIPEQYRMTIWRGLQDLK, for which the abundance fitness is -0.041 ± 0.065.

For YHADPSLVSFLTGLGCPNCIEYFTSQGPQSIYHLQNLTIEDLGALKIPEQYRMTIWRGLQDLK, the abundance fitness is -0.286 ± 0.069.

For YHADPSLVSFLTGLGCPNCIEYFTSQGNQSIYHLQNLTIEDLGALKIPEQYRMTIWRGLQDLK, the abundance fitness was -0.241 ± 0.072.

With YHADPSLVSFLTGLGCPNCIEYFTSQGVQSIYHLQNLTIEDLGALKIPEQYRMTIWRGLQDLK, the abundance fitness was -0.008 ± 0.028.

YHADPSLVSFLTGLGCPNCIEYFTSQGQQSIYHLQNLTIEDLGALKIPEQYRMTIWRGLQDLK: the abundance fitness is -0.038 ± 0.042.

In the case of YHADPSLVSFLTGLGCPNCIEYFTSQGLESIYHLQNLTIEDLGALKIPEQYRMTIWRGLQDLK, the abundance fitness stood at 0.05 ± 0.038.

With YHADPSLVSFLTGLGCPNCIEYFTSQGLFSIYHLQNLTIEDLGALKIPEQYRMTIWRGLQDLK, the abundance fitness is -0.005 ± 0.056.

On to YHADPSLVSFLTGLGCPNCIEYFTSQGLSSIYHLQNLTIEDLGALKIPEQYRMTIWRGLQDLK, for which the abundance fitness came to 0.053 ± 0.033.

In the case of YHADPSLVSFLTGLGCPNCIEYFTSQGLLSIYHLQNLTIEDLGALKIPEQYRMTIWRGLQDLK, the abundance fitness came out at 0.044 ± 0.028.

As to YHADPSLVSFLTGLGCPNCIEYFTSQGLRSIYHLQNLTIEDLGALKIPEQYRMTIWRGLQDLK, the abundance fitness was -0.063 ± 0.028.

YHADPSLVSFLTGLGCPNCIEYFTSQGLGSIYHLQNLTIEDLGALKIPEQYRMTIWRGLQDLK: the abundance fitness was -0.006 ± 0.03.

As to YHADPSLVSFLTGLGCPNCIEYFTSQGLASIYHLQNLTIEDLGALKIPEQYRMTIWRGLQDLK, the abundance fitness was -0.047 ± 0.037.

On to YHADPSLVSFLTGLGCPNCIEYFTSQGLNSIYHLQNLTIEDLGALKIPEQYRMTIWRGLQDLK, for which the abundance fitness is -0.108 ± 0.21.

In the case of YHADPSLVSFLTGLGCPNCIEYFTSQGLHSIYHLQNLTIEDLGALKIPEQYRMTIWRGLQDLK, the abundance fitness worked out at 0.102 ± 0.076.

For YHADPSLVSFLTGLGCPNCIEYFTSQGLISIYHLQNLTIEDLGALKIPEQYRMTIWRGLQDLK, the abundance fitness stood at 0.142 ± 0.06.

For the variant YHADPSLVSFLTGLGCPNCIEYFTSQGLTSIYHLQNLTIEDLGALKIPEQYRMTIWRGLQDLK, the abundance fitness is 0.066 ± 0.04.

Turning to YHADPSLVSFLTGLGCPNCIEYFTSQGLMSIYHLQNLTIEDLGALKIPEQYRMTIWRGLQDLK, the abundance fitness worked out at 0.03 ± 0.04.

Consider YHADPSLVSFLTGLGCPNCIEYFTSQGLPSIYHLQNLTIEDLGALKIPEQYRMTIWRGLQDLK, for which the abundance fitness was determined as 0.006 ± 0.037.

Turning to YHADPSLVSFLTGLGCPNCIEYFTSQGLKSIYHLQNLTIEDLGALKIPEQYRMTIWRGLQDLK, the abundance fitness came to 0.05 ± 0.035.

Regarding YHADPSLVSFLTGLGCPNCIEYFTSQGLVSIYHLQNLTIEDLGALKIPEQYRMTIWRGLQDLK, the abundance fitness was -0.016 ± 0.031.

In the case of YHADPSLVSFLTGLGCPNCIEYFTSQGLWSIYHLQNLTIEDLGALKIPEQYRMTIWRGLQDLK, the abundance fitness is -0.139 ± 0.035.

YHADPSLVSFLTGLGCPNCIEYFTSQGLDSIYHLQNLTIEDLGALKIPEQYRMTIWRGLQDLK: the abundance fitness was 0.089 ± 0.089.

Consider YHADPSLVSFLTGLGCPNCIEYFTSPGLQSIYHLQNLTIEDLGALKIPEQYRMTIWRGLQDLK, for which the abundance fitness was -0.204 ± 0.052.

On to YHADPSLVSFLTGLGCPNCIEYFTSNGLQSIYHLQNLTIEDLGALKIPEQYRMTIWRGLQDLK, for which the abundance fitness came out at 0.109 ± 0.072.

On to YHADPSLVSFLTGLGCPNCIEYFTSTGLQSIYHLQNLTIEDLGALKIPEQYRMTIWRGLQDLK, for which the abundance fitness was -0.082 ± 0.06.

On to YHADPSLVSFLTGLGCPNCIEYFTSSGLQSIYHLQNLTIEDLGALKIPEQYRMTIWRGLQDLK, for which the abundance fitness is -0.004 ± 0.032.

With YHADPSLVSFLTGLGCPNCIEYFTSWGLQSIYHLQNLTIEDLGALKIPEQYRMTIWRGLQDLK, the abundance fitness was -0.286 ± 0.042.

For YHADPSLVSFLTGLGCPNCIEYFTSMGLQSIYHLQNLTIEDLGALKIPEQYRMTIWRGLQDLK, the abundance fitness was -0.207 ± 0.044.

With YHADPSLVSFLTGLGCPNCIEYFTSYGLQSIYHLQNLTIEDLGALKIPEQYRMTIWRGLQDLK, the abundance fitness was -0.32 ± 0.098.

Regarding YHADPSLVSFLTGLGCPNCIEYFTSRGLQSIYHLQNLTIEDLGALKIPEQYRMTIWRGLQDLK, the abundance fitness is 0.001 ± 0.034.

In the case of YHADPSLVSFLTGLGCPNCIEYFTSLGLQSIYHLQNLTIEDLGALKIPEQYRMTIWRGLQDLK, the abundance fitness was -0.199 ± 0.04.

With YHADPSLVSFLTGLGCPNCIEYFTSQGLQSHYHLQNLTIEDLGALKIPEQYRMTIWRGLQDLK, the abundance fitness is -0.156 ± 0.06.

Turning to YHADPSLVSFLTGLGCPNCIEYFTSQGLQSMYHLQNLTIEDLGALKIPEQYRMTIWRGLQDLK, the abundance fitness was determined as 0.012 ± 0.053.

As to YHADPSLVSFLTGLGCPNCIEYFTSQGLQSEYHLQNLTIEDLGALKIPEQYRMTIWRGLQDLK, the abundance fitness was -0.129 ± 0.045.

Turning to YHADPSLVSFLTGLGCPNCIEYFTSQGLQSGYHLQNLTIEDLGALKIPEQYRMTIWRGLQDLK, the abundance fitness was -0.199 ± 0.038.

On to YHADPSLVSFLTGLGCPNCIEYFTSQGLQSKYHLQNLTIEDLGALKIPEQYRMTIWRGLQDLK, for which the abundance fitness was -0.11 ± 0.051.

YHADPSLVSFLTGLGCPNCIEYFTSQGLQSCYHLQNLTIEDLGALKIPEQYRMTIWRGLQDLK: the abundance fitness was -0.011 ± 0.087.

For YHADPSLVSFLTGLGCPNCIEYFTSQGLQSLYHLQNLTIEDLGALKIPEQYRMTIWRGLQDLK, the abundance fitness amounted to 0.035 ± 0.037.

YHADPSLVSFLTGLGCPNCIEYFTSQGLQSAYHLQNLTIEDLGALKIPEQYRMTIWRGLQDLK: the abundance fitness was 0.004 ± 0.043.

For YHADPSLVSFLTGLGCPNCIEYFTSQGLQSDYHLQNLTIEDLGALKIPEQYRMTIWRGLQDLK, the abundance fitness is -0.269 ± 0.068.

On to YHADPSLVSFLTGLGCPNCIEYFTSQGLQSFYHLQNLTIEDLGALKIPEQYRMTIWRGLQDLK, for which the abundance fitness is -0.294 ± 0.21.

Turning to YHADPSLVSFLTGLGCPNCIEYFTSQGLQSNYHLQNLTIEDLGALKIPEQYRMTIWRGLQDLK, the abundance fitness is -0.086 ± 0.051.
